{"source": "patent US20140017269A1", "about": "(CHILDREN S HOSPITAL MEDICAL CENTER, published 2014)", "proteins": {"B1": {"name": "NoV P^--VP8* (C-end) protein (other)", "chain": "SRTKPFTVPILTVEEMSNSRFPIPLEKLYTGPSSAFVVQPQNGRCTTDGVLLGTTQLSAVNICTFRGDVTHIAGSHDYIMNLASQNWNNYDPTEEIPAPLGTPDFVGKIQGMLTQTTREDGSTRAHKATVSTGSVHFTPKLGSVQYTTDTNNDLQTGQNTKFTPVGVIQDGNNHQNEPQQWVLPNYSGRTGHNVHLAPAVAPTFPGEQLLFFRSTMPGCSGYPNMNLDCLLPQEWVQHFYQEAAPAQSDVALLRFVNPDTGRVLFECKLHKSGYVTVAHTGPHDLVIPPNGYFRFDSWVNQFYTLAPMGNGAGRGGGGGGGGGGGGLDGPYQPTTFTPPTDYWILINSNTNGVVYESTNNSDFWTAVIAVEPHVNPVDRQYNVFGENKQFNVRNDSDKWKFLEMFRGSSQNDFYNRRTLTSDTRLVGILKYGGRIWTFHGETPRATTDSSNTANLNGISITIHSEFYIIPRSQESKCNEYINNGL", "notes": "Thrombin-cleaved product; ~52 kDa monomer, ~100 kDa dimer; also called free NoV P^--VP8* dimer"}, "B2": {"name": "HEV P domain (protruding domain of hepatitis E virus) (other)", "chain": "TPSPAPSRPFSVLRANDVLWLSLTAAEYDQTTYGSSTNPMYVSDTVTFVNVATGAQAVARSLDWSKVTLDGRPLTTIQQYSKTFYVLPLRGKLSFWEASTTKAGYPYNYNTTASDQILIENAAGHRVAISTYTTSLGAGPTSISAVGVLAPHSALAALEDTVDYPCDCRGDCFC", "notes": "released from GST-HEV P by thrombin; ~19 kDa monomer, ~38 kDa dimer"}, "B3": {"name": "Rotavirus VP8* (other)", "chain": "LDGPYQPTTFTPPTDYWILINSNTNGVVYESTNNSDFWTAVIAVEPHVNPVDRQYNVFGENKQFNVRNDSDKWKFLEMFRGSSQNDFYNRRTLTSDTRLVGILKYGGRIWTFHGETPRATTDSSNTANLNGISITIHSEFYIIPRSQESKCNEYINNGL", "notes": "~18 kDa monomer; also called free VP8* monomer"}, "B4": {"name": "NoV P polypeptide (NoV P^-) of Norovirus VA387 (GII.4) (other)", "chain": "SRTKPFTVPILTVEEMSNSRFPIPLEKLYTGPSSAFVVQPQNGRCTTDGVLLGTTQLSAVNICTFRGDVTHIAGSHDYIMNLASQNWNNYDPTEEIPAPLGTPDFVGKIQGMLTQTTREDGSTRAHKATVSTGSVHFTPKLGSVQYTTDTNNDLQTGQNTKFTPVGVIQDGNNHQNEPQQWVLPNYSGRTGHNVHLAPAVAPTFPGEQLLFFRSTMPGCSGYPNMNLDCLLPQEWVQHFYQEAAPAQSDVALLRFVNPDTGRVLFECKLHKSGYVTVAHTGPHDLVIPPNGYFRFDSWVNQFYTLAPMGNGAGR", "notes": "~34.5 kDa monomer, ~69 kDa dimer; also called free NoV P^- dimer"}, "B5": {"name": "NoV P^- (387)-NoV P^- (115) fusion protein (other)", "chain": "SRTKPFTVPILTVEEMSNSRFPIPLEKLYTGPSSAFVVQPQNGRCTTDGVLLGTTQLSAVNICTFRGDVTHIAGSHDYIMNLASQNWNNYDPTEEIPAPLGTPDFVGKIQGMLTQTTREDGSTRAHKATVSTGSVHFTPKLGSVQYTTDTNNDLQTGQNTKFTPVGVIQDGNNHQNEPQQWVLPNYSGRTGHNVHLAPAVAPTFPGEQLLFFRSTMPGCSGYPNMNLDCLLPQEWVQHFYQEAAPAQSDVALLRFVNPDTGRVLFECKLHKSGYVTVAHTGPHDLVIPPNGYFRFDSWVNQFYTLAPMGNGAGRGGGGGGGGGGGGQKTKPFSVPNLPLNTLSNSRVPSLIRSMMVSRDHGQMVQFQNGRVTLDGQLQGTTPTSASQLCKIRGSVFHANGGNGYTLTELDGSPYHAFESPAPIGFPDLGECDWHMEASPTTQFDTGDVIKQINVKQEAAFAPHLGTIQADGLSDVSVNTNMIAKLGWVSPASDGHRGNVDPWVIPRYGSTLTEAAQLAPPIYPPGFGEAIVFFMSDFPIAHGANGLSVPCTIPQEFVTHFVNEQAPTRGEAALLHYLDPDTHRNLGEFKLYPEGFMTCVPNSSGTGPQTLPINGVFVFVSWVSRFYQLKPVGTAGPARSLGI"}, "B6": {"name": "NoV P^- (387)-NoV P^- (207) fusion protein (other)", "chain": "SRTKPFTVPILTVEEMSNSRFPIPLEKLYTGPSSAFVVQPQNGRCTTDGVLLGTTQLSAVNICTFRGDVTHIAGSHDYIMNLASQNWNNYDPTEEIPAPLGTPDFVGKIQGMLTQTTREDGSTRAHKATVSTGSVHFTPKLGSVQYTTDTNNDLQTGQNTKFTPVGVIQDGNNHQNEPQQWVLPNYSGRTGHNVHLAPAVAPTFPGEQLLFFRSTMPGCSGYPNMNLDCLLPQEWVQHFYQEAAPAQSDVALLRFVNPDTGRVLFECKLHKSGYVTVAHTGPHDLVIPPNGYFRFDSWVNQFYTLAPMGNGAGRGGGGGGGGGGGGSKTKAFTIPVLKISEMTNSRFPVPVDQMYTSRSEGIVVQPQNGRATIDGELLGTTLVSPVSVCNFKGNLQAEVPGQHQLYQLQLTNLDGSPIDPTDDTPGPLGCPDFTGLLYGVASQRGPGDATRAHEARIDTGSDTFAPKIGQVRFYSTSSDFETNQPTHFTPIGIYIEGNSSDFNQWQLPRYGGHLANNNHLAPAVSPLFPGEQILFFRSFIPGASGHTNGEMDCLLPQEFVQHFYQEAATARSEVALLRFVNPDTGRALFESKLHKQGFMTIASSGDHPIIMPTNGYFRFEAWVNQFYSLAPVGTGSGR", "notes": "also called NoV P^-(GII.4)-NoV P^-(GII.9)"}, "B7": {"name": "NoV P domain-RGDCFC (NoV P^+) of Norovirus VA387 (GII.4) (other)", "chain": "SRTKPFTVPILTVEEMSNSRFPIPLEKLYTGPSSAFVVQPQNGRCTTDGVLLGTTQLSAVNICTFRGDVTHIAGSHDYIMNLASQNWNNYDPTEEIPAPLGTPDFVGKIQGMLTQTTREDGSTRAHKATVSTGSVHFTPKLGSVQYTTDTNNDLQTGQNTKFTPVGVIQDGNNHQNEPQQWVLPNYSGRTGHNVHLAPAVAPTFPGEQLLFFRSTMPGCSGYPNMNLDCLLPQEWVQHFYQEAAPAQSDVALLRFVNPDTGRVLFECKLHKSGYVTVAHTGPHDLVIPPNGYFRFDSWVNQFYTLAPMGNGAGRRRALCDCRGDCFC", "notes": "Mainly the 24mer P particle (~830 kDa), with a low portion (~5%) of P dimer; also called P-RGDCFC"}}, "key": {"[1]": {"biological_target": "the molecule itself", "test": "gel filtration; self-association"}, "[2]": {"biological_target": "the molecule itself", "test": "gel filtration; self-association", "remark": "listed apart in the source"}, "[3]": {"biological_target": "the molecule itself", "test": "gel filtration chromatography (self-association)"}, "[4]": {"biological_target": "the molecule itself", "test": "form of the immunogen as described; self-association"}, "[5]": {"biological_target": "the molecule itself", "test": "gel filtration and EM; self-association"}}}
{"protein": "B1", "values": [{"measurement": "binding result", "setting": "[1]", "result": "binds"}]}
{"protein": "B2", "values": [{"measurement": "binding result", "setting": "[2]", "result": "binds"}]}
{"protein": "B3", "values": [{"measurement": "binding result", "setting": "[3]", "result": "no binding"}]}
{"protein": "B4", "values": [{"measurement": "binding result", "setting": "[2]", "result": "binds"}]}
{"protein": "B5", "values": [{"measurement": "binding result", "setting": "[4]", "result": "binds"}]}
{"protein": "B6", "values": [{"measurement": "binding result", "setting": "[5]", "result": "binds"}]}
{"protein": "B7", "values": [{"measurement": "binding result", "setting": "[5]", "result": "binds"}]}
